The supplement of paper PMC5998384

What was measured:
HeLa Kyoto [1] = experiment: thermal stability score vs G1/S (z-score of summed log2 fold changes over temperatures); higher = more thermally stable than in G1/S
HeLa Kyoto [2] = experiment: melting temperature (median over replicates), in situ; higher = more thermally stable
HeLa Kyoto [3] = experiment: solubility in G1/S (NP-40 vs SDS abundance) (log2 ratio); higher = more soluble; conditions: cell cycle stage: G1/S
HeLa Kyoto [4] = experiment: solubility change mitosis vs G1/S (difference of NP-40 vs SDS log2 ratios) (log2 ratio difference); higher = more soluble in mitosis
[5] = cell cycle stage: early G1 (4.5 h after nocodazole release)
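Throughout, for melting temperature (median over replicates), in situ: HeLa Kyoto cells synchronized by double thymidine or nocodazole block, proteins quantified by TMT10plex mass spectrometry, three independent biological replicates.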
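Throughout, for solubility change mitosis vs G1/S (difference of NP-40 vs SDS log2 ratios): synchronized HeLa Kyoto cells (double thymidine block for G1/S, nocodazole release for mitosis), protein amounts in NP-40 versus SDS lysates quantified by mass spectrometry, three biological replicates.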
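Throughout, for solubility in G1/S (NP-40 vs SDS abundance): HeLa Kyoto cells arrested at G1/S by double thymidine block, proteins quantified by TMT10plex mass spectrometry in mild NP-40 versus SDS extracts, three biological replicates.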
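Throughout, for thermal stability score vs G1/S (z-score of summed log2 fold changes over temperatures): synchronized HeLa Kyoto cells, proteins quantified by TMT10plex mass spectrometry, three biological replicates, mitosis taken 0.5 h after nocodazole release, G1/S directly after double thymidine block.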

Sequence of HNRNPU (chain, as listed by the source): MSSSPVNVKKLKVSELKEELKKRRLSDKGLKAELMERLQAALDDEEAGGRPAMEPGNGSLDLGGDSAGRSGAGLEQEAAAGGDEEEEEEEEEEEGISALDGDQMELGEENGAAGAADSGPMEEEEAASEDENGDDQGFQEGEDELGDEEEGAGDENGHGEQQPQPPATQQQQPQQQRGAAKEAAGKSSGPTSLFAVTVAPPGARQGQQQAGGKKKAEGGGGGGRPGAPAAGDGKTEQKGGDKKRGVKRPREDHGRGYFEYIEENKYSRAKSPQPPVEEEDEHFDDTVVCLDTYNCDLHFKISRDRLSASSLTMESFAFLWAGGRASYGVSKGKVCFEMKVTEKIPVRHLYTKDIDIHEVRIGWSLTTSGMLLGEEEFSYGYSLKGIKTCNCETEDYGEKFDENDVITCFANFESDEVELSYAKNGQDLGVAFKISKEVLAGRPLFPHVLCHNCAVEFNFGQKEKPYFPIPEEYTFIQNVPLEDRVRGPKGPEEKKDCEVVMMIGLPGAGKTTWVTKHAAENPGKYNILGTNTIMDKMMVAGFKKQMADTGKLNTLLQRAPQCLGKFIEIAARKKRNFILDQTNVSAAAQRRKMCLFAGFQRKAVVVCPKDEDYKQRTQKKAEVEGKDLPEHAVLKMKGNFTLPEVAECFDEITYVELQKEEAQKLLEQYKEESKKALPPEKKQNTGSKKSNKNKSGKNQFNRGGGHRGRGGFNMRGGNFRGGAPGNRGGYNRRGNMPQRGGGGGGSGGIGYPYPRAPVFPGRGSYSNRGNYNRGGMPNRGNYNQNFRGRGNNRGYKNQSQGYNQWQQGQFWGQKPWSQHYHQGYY

| Substance | thermal stability score (HeLa Kyoto [1]; [5]) | thermal stability score (HeLa Kyoto [1]; cell cycle stage: mitosis) | melting temperature (HeLa Kyoto [2]; cell cycle stage: G1/S) [°C] | melting temperature (HeLa Kyoto [2]; cell cycle stage: mitosis) [°C] | solubility in G1/S (log2) (HeLa Kyoto [3]) | solubility change mitosis (log2) (HeLa Kyoto [4]) |
| --- | --- | --- | --- | --- | --- | --- |
| MSSKGSVVLAYSGGLDTSCILVWLKEQGYDVIAYLANIGQKEDFEEARKKALKLGAKKVFIEDVSREFVEEFIWPAIQSSALYEDRYLLGTSLARPCIARKQVEIAQREGAKYVSHGATGKGNDQVRFELSCYSLAPQIKVIAPWRMPEFYNRFKGRNDLMEYAKQHGIPIPVTPKNPWSMDENLMHISYEAGILENPKNQAPPGLYTKTQDPAKAPNTPDILEIEFKKGVPVKVTNVKDGTTHQTSLELFMYLNEVAGKHGVGRIDIVENRFIGMKSRGIYETPAGTILYHAHLDIEAFTMDREVRKIKQGLGLKFAELVYTGFWHSPECEFVRHCIAKSQERVEGKVQVSVLKGQVYILGRESPLSLYNEELVSMNVQGDYEPTDATGFININSLRLKEYHRLQSKVTAK [ASS1] | -0.511 | -0.833 | 54.3 | 54.1 | 0.145 | -0.0958 |
| HNRNPU | 7.74 | 17.8 | 47.1 | 49.5 | -0.381 | 0.232 |
| MWLPLVLLLAVLLLAVLCKVYLGLFSGSSPNPFSEDVKRPPAPLVTDKEARKKVLKQAFSANQVPEKLDVVVIGSGFGGLAAAAILAKAGKRVLVLEQHTKAGGCCHTFGKNGLEFDTGIHYIGRMEEGSIGRFILDQITEGQLDWAPLSSPFDIMVLEGPNGRKEYPMYSGEKAYIQGLKEKFPQEEAIIDKYIKLVKVVSSGAPHAILLKFLPLPVVQLLDRCGLLTRFSPFLQASTQSLAEVLQQLGASSELQAVLSYIFPTYGVTPNHSAFSMHALLVNHYMKGGFYPRGGSSEIAFHTIPVIQRAGGAVLTKATVQSVLLDSAGKACGVSVKKGHELVNIYCPIVVSNAGLFNTYEHLLPGNARCLPGVKQQLGTVRPGLGMTSVFICLRGTKEDLHLPSTNYYVYYDTDMDQAMERYVSMPREEAAEHIPLLFFAFPSAKDPTWEDRFPGRSTMIMLIPTAYEWFEEWQAELKGKRGSDYETFKNSFVEASMSVVLKLFPQLEGKVESVTAGSPLTNQFYLAAPRGACYGADHDLGRLHPCVMASLRAQSPIPNLYLTGQDIFTCGLVGALQGALLCSSAILKRNLYSDLKNLDSRIRAQKKKN [RETSAT] | 2.89 | 3.75 | 52.1 | 52.2 | 0.0503 | -0.0973 |
| MMSQSSGSGDGNDDEATTSKDGGFSSPSPSAAAAAQEVRSATDGNTSTTPPTSAKKRKLNSSSSSSSNSSNEREDFDSTSSSSSTPPLQPRDSASPSTSSFCLGVSVAASSHVPIQKKLRFEDTLEFVGFDAKMAEESSSSSSSSSPTAATSQQQQLKNKSILISSVASVHHANGLAKSSTTVSSFANSKPGSAKKLVIKNFKDKPKLPENYTDETWQKLKEAVEAIQNSTSIKYNLEELYQAVENLCSYKISANLYKQLRQICEDHIKAQIHQFREDSLDSVLFLKKIDRCWQNHCRQMIMIRSIFLFLDRTYVLQNSMLPSIWDMGLELFRAHIISDQKVQNKTIDGILLLIERERNGEAIDRSLLRSLLSMLSDLQIYQDSFEQRFLEETNRLYAAEGQKLMQEREVPEYLHHVNKRLEEEADRLITYLDQTTQKSLIATVEKQLLGEHLTAILQKGLNNLLDENRIQDLSLLYQLFSRVRGGVQVLLQQWIEYIKAFGSTIVINPEKDKTMVQELLDFKDKVDHIIDICFLKNEKFINAMKEAFETFINKRPNKPAELIAKYVDSKLRAGNKEATDEELEKMLDKIMIIFRFIYGKDVFEAFYKKDLAKRLLVGKSASVDAEKSMLSKLKHECGAAFTSKLEGMFKDMELSKDIMIQFKQYMQNQNVPGNIELTVNILTMGYWPTYVPMEVHLPPEMVKLQEIFKTFYLGKHSGRKLQWQSTLGHCVLKAEFKEGKKELQVSLFQTLVLLMFNEGEEFSLEEIKQATGIEDGELRRTLQSLACGKARVLAKNPKGKDIEDGDKFICNDDFKHKLFRIKINQIQMKETVEEQASTTERVFQDRQYQIDAAIVRIMKMRKTLSHNLLVSEVYNQLKFPVKPADLKKRIESLIDRDYMERDKENPNQYNYIA [CUL4B] | -1.29 | -1.57 | 54.6 | 54.4 | 0.0519 | -0.261 |
| MDCGSVGGQRTQRLPGRQRLLFLPVGLSGRPGGSETSARRCLSALSDGLGALRPRAPAARGGVSRASPLLLLLLVPSPRLAAAAPRRQLGDWERSRLGYAAPPAGRSSAWRCSPGVAAAAGALPQYHGPAPALVSCRRELSLSAGSLQLERKRRDFTSSGSRKLYFDTHALVCLLEDNGFATQQAEIIVSALVKILEANMDIVYKDMVTKMQQEITFQQVMSQIANVKKDMIILEKSEFSALRAENEKIKLELHQLKQQVMDEVIKVRTDTKLDFNLEKSRVKELYSLNEKKLLELRTEIVALHAQQDRALTQTDRKIETEVAGLKTMLESHKLDNIKYLAGSIFTCLTVALGFYRLWI [MCUR1] | -0.0232 | -0.133 |  | 52 | 0.186 | -0.0249 |
| EHBP1L1 | -1.13 | 2.05 | 49.7 | 49.1 | -0.0555 | -0.0696 |
| MAVSAGSARTSPSSDKVQKDKAELISGPRQDSRIGKLLGFEWTDLSSWRRLVTLLNRPTDPASLAVFRFLFGFLMVLDIPQERGLSSLDRKYLDGLDVCRFPLLDALRPLPLDWMYLVYTIMFLGALGMMLGLCYRISCVLFLLPYWYVFLLDKTSWNNHSYLYGLLAFQLTFMDANHYWSVDGLLNAHRRNAHVPLWNYAVLRGQIFIVYFIAGVKKLDADWVEGYSMEYLSRHWLFSPFKLLLSEELTSLLVVHWGGLLLDLSAGFLLFFDVSRSIGLFFVSYFHCMNSQLFSIGMFSYVMLASSPLFCSPEWPRKLVSYCPRRLQQLLPLKAAPQPSVSCVYKRSRGKSGQKPGLRHQLGAAFTLLYLLEQLFLPYSHFLTQGYNNWTNGLYGYSWDMMVHSRSHQHVKITYRDGRTGELGYLNPGVFTQSRRWKDHADMLKQYATCLSRLLPKYNVTEPQIYFDIWVSINDRFQQRIFDPRVDIVQAAWSPFQRTSWVQPLLMDLSPWRAKLQEIKSSLDNHTEVVFIADFPGLHLENFVSEDLGNTSIQLLQGEVTVELVAEQKNQTLREGEKMQLPAGEYHKVYTTSPSPSCYMYVYVNTTELALEQDLAYLQELKEKVENGSETGPLPPELQPLLEGEVKGGPEPTPLVQTFLRRQQRLQEIERRRNTPFHERFFRFLLRKLYVFRRSFLMTCISLRNLILGRPSLEQLAQEVTYANLRPFEAVGELNPSNTDSSHSNPPESNPDPVHSEF [GGCX] | -1.48 | -3.01 | 53 | 53.1 | 0.0675 | -0.054 |
| MSGLVLGQRDEPAGHRLSQEEILGSTRLVSQGLEALRSEHQAVLQSLSQTIECLQQGGHEEGLVHEKARQLRRSMENIELGLSEAQVMLALASHLSTVESEKQKLRAQVRRLCQENQWLRDELAGTQQRLQRSEQAVAQLEEEKKHLEFLGQLRQYDEDGHTSEEKEGDATKDSLDDLFPNEEEEDPSNGLSRGQGATAAQQGGYEIPARLRTLHNLVIQYAAQGRYEVAVPLCKQALEDLERTSGRGHPDVATMLNILALVYRDQNKYKEAAHLLNDALSIRESTLGPDHPAVAATLNNLAVLYGKRGKYKEAEPLCQRALEIREKVLGTNHPDVAKQLNNLALLCQNQGKYEAVERYYQRALAIYEGQLGPDNPNVARTKNNLASCYLKQGKYAEAETLYKEILTRAHVQEFGSVDDDHKPIWMHAEEREEMSKSRHHEGGTPYAEYGGWYKACKVSSPTVNTTLRNLGALYRRQGKLEAAETLEECALRSRRQGTDPISQTKVAELLGESDGRRTSQEGPGDSVKFEGGEDASVAVEWSGDGSGTLQRSGSLGKIRDVLRRSSELLVRKLQGTEPRPSSSNMKRAASLNYLNQPSAAPLQVSRGLSASTMDLSSSS [KLC4] | 0.719 | 1.19 | 49.8 | 51.3 | 0.299 | -0.12 |
| MADTLPSEFDVIVIGTGLPESIIAAACSRSGRRVLHVDSRSYYGGNWASFSFSGLLSWLKEYQENSDIVSDSPVWQDQILENEEAIALSRKDKTIQHVEVFCYASQDLHEDVEEAGALQKNHALVTSANSTEAADSAFLPTEDESLSTMSCEMLTEQTPSSDPENALEVNGAEVTGEKENHCDDKTCVPSTSAEDMSENVPIAEDTTEQPKKNRITYSQIIKEGRRFNIDLVSKLLYSRGLLIDLLIKSNVSRYAEFKNITRILAFREGRVEQVPCSRADVFNSKQLTMVEKRMLMKFLTFCMEYEKYPDEYKGYEEITFYEYLKTQKLTPNLQYIVMHSIAMTSETASSTIDGLKATKNFLHCLGRYGNTPFLFPLYGQGELPQCFCRMCAVFGGIYCLRHSVQCLVVDKESRKCKAIIDQFGQRIISEHFLVEDSYFPENMCSRVQYRQISRAVLITDRSVLKTDSDQQISILTVPAEEPGTFAVRVIELCSSTMTCMKGTYLVHLTCTSSKTAREDLESVVQKLFVPYTEMEIENEQVEKPRILWALYFNMRDSSDISRSCYNDLPSNVYVCSGPDCGLGNDNAVKQAETLFQEICPNEDFCPPPPNPEDIILDGDSLQPEASESSAIPEANSETFKESTNLGNLEESSE [CHM] | -0.484 | -1.2 | 52.9 | 53.1 | -0.115 | -0.191 |
| MSEVKSRKKSGPKGAPAAEPGKRSEGGKTPVARSSGGGGWADPRTCLSLLSLGTCLGLAWFVFQQSEKFAKVENQYQLLKLETNEFQQLQSKISLISEKWQKSEAIMEQLKSFQIIAHLKRLQEEINEVKTWSNRITEKQDILNNSLTTLSQDITKVDQSTTSMAKDVGLKITSVKTDIRRISGLVTDVISLTDSVQELENKIEKVEKNTVKNIGDLLSSSIDRTATLRKTASENSQRINSVKKTLTELKSDFDKHTDRFLSLEGDRAKVLKTVTFANDLKPKVYNLKKDFSRLEPLVNDLTLRIGRLVTDLLQREKEIAFLSEKISNLTIVQAEIKDIKDEIAHISDMN [IKBIP] | 2.64 | 4.37 | 54.1 | 55.2 | 0.751 | 0.165 |
| HSP90AB1 | 0.311 | 0.779 | 51.3 | 51.1 | -0.0892 | -0.125 |
| MAASAAAASAAAASAASGSPGPGEGSAGGEKRSTAPSAAASASASAAASSPAGGGAEALELLEHCGVCRERLRPEREPRLLPCLHSACSACLGPAAPAAANSSGDGGAAGDGTVVDCPVCKQQCFSKDIVENYFMRDSGSKAATDAQDANQCCTSCEDNAPATSYCVECSEPLCETCVEAHQRVKYTKDHTVRSTGPAKSRDGERTVYCNVHKHEPLVLFCESCDTLTCRDCQLNAHKDHQYQFLEDAVRNQRKLLASLVKRLGDKHATLQKSTKEVRSSIRQVSDVQKRVQVDVKMAILQIMKELNKRGRVLVNDAQKVTEGQQERLERQHWTMTKIQKHQEHILRFASWALESDNNTALLLSKKLIYFQLHRALKMIVDPVEPHGEMKFQWDLNAWTKSAEAFGKIVAERPGTNSTGPAPMAPPRAPGPLSKQGSGSSQPMEVQEGYGFGSGDDPYSSAEPHVSGVKRSRSGEGEVSGLMRKVPRVSLERLDLDLTADSQPPVFKVFPGSTTEDYNLIVIERGAAAAATGQPGTAPAGTPGAPPLAGMAIVKEEETEAAIGAPPTATEGPETKPVLMALAEGPGAEGPRLASPSGSTSSGLEVVAPEGTSAPGGGPGTLDDSATICRVCQKPGDLVMCNQCEFCFHLDCHLPALQDVPGEEWSCSLCHVLPDLKEEDGSLSLDGADSTGVVAKLSPANQRKCERVLLALFCHEPCRPLHQLATDSTFSLDQPGGTLDLTLIRARLQEKLSPPYSSPQEFAQDVGRMFKQFNKLTEDKADVQSIIGLQRFFETRMNEAFGDTKFSAVLVEPPPMSLPGAGLSSQELSGGPGDGP [TRIM28] | 1.33 | 6.59 | 48.2 | 49.2 | 0.119 | -0.0696 |
